Measured values published in article PMC10467038 (Science translational medicine, 2023).

Legend:
[1] = molecular target: complement C1q (purified) (UniProt P02745 23-245; P02746 28-253; P02747 29-245); experiment: ELISA
[2] = molecular target: the molecule itself; experiment: negative staining electron microscopy

complement C1q (purified), sequence (P02745 23-245, chain 1 of 3): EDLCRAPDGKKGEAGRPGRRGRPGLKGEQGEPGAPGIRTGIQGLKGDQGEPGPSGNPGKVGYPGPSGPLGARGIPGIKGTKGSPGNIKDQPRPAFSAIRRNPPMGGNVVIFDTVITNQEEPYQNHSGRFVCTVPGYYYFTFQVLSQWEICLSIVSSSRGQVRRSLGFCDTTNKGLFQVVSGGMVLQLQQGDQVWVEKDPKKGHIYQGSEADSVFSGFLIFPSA
complement C1q (purified), sequence (P02746 28-253, chain 2 of 3): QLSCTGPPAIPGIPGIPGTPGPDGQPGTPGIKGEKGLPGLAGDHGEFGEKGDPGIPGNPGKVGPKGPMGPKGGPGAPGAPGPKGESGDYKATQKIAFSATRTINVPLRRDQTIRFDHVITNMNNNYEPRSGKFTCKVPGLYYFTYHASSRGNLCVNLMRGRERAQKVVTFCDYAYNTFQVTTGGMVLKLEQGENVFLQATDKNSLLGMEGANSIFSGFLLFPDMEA
complement C1q (purified), sequence (P02747 29-245, chain 3 of 3): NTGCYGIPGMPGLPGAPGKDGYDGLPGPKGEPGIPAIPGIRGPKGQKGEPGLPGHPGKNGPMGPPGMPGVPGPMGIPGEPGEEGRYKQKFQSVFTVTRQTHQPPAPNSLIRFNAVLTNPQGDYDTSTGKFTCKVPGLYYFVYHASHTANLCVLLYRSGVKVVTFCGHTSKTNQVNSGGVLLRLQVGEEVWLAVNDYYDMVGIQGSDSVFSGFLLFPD

Binder | Kd [1] | stoichiometry N [2]
Nptxr/Nptx2 coexpressed on a stable doxycycline-inducible CHO cell line (complex) chain 1: MKFLAVLLAAGMLAFLGAVICIIASVPLAASPARALPGGADNASVASGAAASPGPQRSLSALHGAGGSAGPPALPGAPAASAHPLPPGPLFSRFLCTPLAAACPSGAQQGDAAGAAPGEREELLLLQSTAEQLRQTALQQEARIRADQDTIRELTGKLGRCESGLPRGLQGAGPRRDTMADGPWDSPALILELEDAVRALRDRIDRLEQELPARVNLSAAPAPVSAVPTGLHSKMDQLEGQLLAQVLALEKERVALSHSSRRQRQEVEKELDVLQGRVAELEHGSSAYSPPDAFKISIPIRNNYMYARVRKALPELYAFTACMWLRSRSSGTGQGTPFSYSVPGQANEIVLLEAGHEPMELLINDKVAQLPLSLKDNGWHHICIAWTTRDGLWSAYQDGELQGSGENLAAWHPIKPHGILILGQEQDTLGGRFDATQAFVGDIAQFNLWDHALTPAQVLGIANCTAPLLGNVLPWEDKLVEAFGGATKAAFDVCKGRAKA chain 2: GAQDSPAPGSRFVCTALPPEAVHAGCPLPAMPMQGGAQSPEEELRAAVLQLRETVVQQKETLGAQREAIRELTGKLARCEGLAGGKARGAGATGKDTMGDLPRDPGHVVEQLSRSLQTLKDRLESLEHQLRANVSNAGLPGDFREVLQQRLGELERQLLRKVAELEDEKSLLHNETSAHRQKTESTLNALLQRVTELERGNSAFKSPDAFKVSLPLRTNYLYGKIKKTLPELYAFTICLWLRSSASPGIGTPFSYAVPGQANEIVLIEWGNNPIELLINDKVAQLPLFVSDGKWHHICVTWTTRDGMWEAFQDGEKLGTGENLAPWHPIKPGGVLILGQEQDTVGGRFDATQAFVGELSQFNIWDRVLRAQEIVNIANCSTNMPGNIIPWVDNNVDVFGGASKWPVETCEERLLDL | ~2 nM | 
neuronal pentraxin 2 (purified, recombinant) (natural protein, UniProt P47972 16-431, looked up) GAQDSPAPGSRFVCTALPPEAVHAGCPLPAMPMQGGAQSPEEELRAAVLQLRETVVQQKETLGAQREAIRELTGKLARCEGLAGGKARGAGATGKDTMGDLPRDPGHVVEQLSRSLQTLKDRLESLEHQLRANVSNAGLPGDFREVLQQRLGELERQLLRKVAELEDEKSLLHNETSAHRQKTESTLNALLQRVTELERGNSAFKSPDAFKVSLPLRTNYLYGKIKKTLPELYAFTICLWLRSSASPGIGTPFSYAVPGQANEIVLIEWGNNPIELLINDKVAQLPLFVSDGKWHHICVTWTTRDGMWEAFQDGEKLGTGENLAPWHPIKPGGVLILGQEQDTVGGRFDATQAFVGELSQFNIWDRVLRAQEIVNIANCSTNMPGNIIPWVDNNVDVFGGASKWPVETCEERLLDL |  | 6
